{"source": "paper PMC5598764", "molecular_target": "Porcine skeletal actin, pyrene-labeled (porcine) (UniProt P68137)", "experiment": "stopped-flow fluorescence"}
{"substance": "Cardiac myosin from porcine left ventricular tissue (from UniProt P79293 1-1935) (complex)", "values": [{"measurement": "kon", "result": 0.35, "unit": "M⁻¹ s⁻¹"}]}
